Measured values from patent publication US11618906B2, “Hydroxylation techniques” (HYPHA DISCOVERY LTD., priority 2018, dated 2023).

Tests used:
Type in all cases: biochemical
[1] = Metabolism of valsartan by P450 aluC09 and mutants; details: percent of substrate being converted; 0.125 mg/ml, 27° C., 16-20 hours; [CYP] per enzyme as in Table 8
Method in brief: (§1)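 Mutant P450s were combined with redox partners and substrate (0.125 mg/ml) in pH 7.4 phosphate buffer with 5 mM MgCl2 and cofactor recycling (1 mM NADP, 5 mM G6P, 2 UN/ml G6PDH). Mixtures were shaken at 27° C for 16-20 hours, extracted with equal-volume acetonitrile and centrifuged. Products were quantified as conversion by UPLC-MS.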

[2] = Metabolism of tivantinib by P450 aluC09 and mutants; details: percent of substrate being converted; 0.125 mg/ml, 27° C., 16-20 hours; [CYP] per enzyme as in Table 8
Method in brief: as §1

[3] = Hydroxylation / de-N-ethylation of napropamide catalysed by cytochrome P450 aluC09 and mutants; details: for Desethyl Napropamide (1.62 min) / Desethyl-hydroxy-Napropamide (1.41 min) / Hydroxy-Napropamide (1) (1.53 min) / Hydroxy-Napropamide (2), (1.52 min) / M-2Da (unidentified) (1.89 min) / Napropamide (substrate): % by UV peak area at 275 nm, 0.125 mg/ml substrate, 27° C., 16-20 hours; for Hydroxylated Ratio 2:1: napropamide, ratio of UV peak areas
Method in brief: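 Conversion of napropamide (0.125 mg/ml) to hydroxylated and de-ethylated metabolites was measured by UPLC-MS after acetonitrile extraction. Reactions ran 16-20 h at 27° C in pH 7.4 potassium phosphate (50 mM) with 5 mM MgCl2, 1 mM NADP, 5 mM G6P and 2 UN/ml G6PDH. Enzymes were lyophilised P450 aluC09 variants, ferredoxin aluF03 and ferredoxin reductase SCF15A.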

[4] = Metabolism of buparvaquone by P450 aluC09 and mutants; details: percent of substrate being converted; 0.125 mg/ml, 27° C., 16-20 hours; [CYP] per enzyme as in Table 8
Method in brief: as §1

[5] = Metabolism of bosentan by P450 aluC09 and mutants; details: percent of substrate being converted; 0.125 mg/ml, 27° C., 16-20 hours; [CYP] per enzyme as in Table 8
Method in brief: as §1

[6] = Metabolism of BIRB796 by P450 aluC09 and mutants; details: percent of substrate being converted; 0.125 mg/ml, 27° C., 16-20 hours; [CYP] per enzyme as in Table 8
Method in brief: as §1

[7] = Metabolism of 4-pyrrolidylacetophenone by P450 aluC09 and mutants; details: percent of substrate being converted; 0.125 mg/ml, 27° C., 16-20 hours; [CYP] per enzyme as in Table 8
Method in brief: as §1

[8] = Metabolism of tofacitinib by P450 aluC09 and mutants; details: percent of substrate being converted; 0.125 mg/ml, 27° C., 16-20 hours; [CYP] per enzyme as in Table 8
Method in brief: as §1

[9] = Metabolism of epothilone B by P450 aluC09 and mutants; details: percent of substrate being converted; 0.125 mg/ml, 27° C., 16-20 hours; [CYP] per enzyme as in Table 8
Method in brief: as §1

[10] = Metabolism of celecoxib by P450 aluC09 and mutants; details: percent of substrate being converted; 0.125 mg/ml, 27° C., 16-20 hours; [CYP] per enzyme as in Table 8
Method in brief: as §1

[11] = Hydroxylation of aceclofenac catalysed by cytochrome P450 aluC09 and mutants; details: for Aceclofenac (Substrate) (1.80 mins) / Dihydroxy-Aceclofenac (1.42 mins) / Hydroxy-Aceclofenac (1) (1.64 min) / Hydroxy-Aceclofenac (2) (1.60 min): % by UV peak area at 275 nm, 0.125 mg/ml substrate, 27° C., 16-20 hours; for Hydroxylated Ratio 2:1: aceclofenac, ratio of UV peak areas at 275 nm
Method in brief: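 Conversion was assessed by UPLC-MS (UV and MS detection) after acetonitrile extraction of reactions run 16-20 h at 27° C, shaking. Reactions contained substrate at 0.125 mg/ml, P450 mutant plus ferredoxin and reductase partners, 1 mM NADP with glucose-6-phosphate regeneration, in phosphate buffer pH 7.4.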

[12] = Metabolism of ruxolitinib by P450 aluC09 and mutants; details: percent of substrate being converted; 0.125 mg/ml, 27° C., 16-20 hours; [CYP] per enzyme as in Table 8
Method in brief: as §1

[13] = Metabolism of ritonavir by P450 aluC09 and mutants; details: percent of substrate being converted; 0.125 mg/ml, 27° C., 16-20 hours; [CYP] per enzyme as in Table 8
Method in brief: as §1

[14] = Hydroxylation of diclofenac catalysed by cytochrome P450 aluC09 and mutants (UPLC-PDA-MS); details: for 4′,5-dihydroxy-diclofenac 1.38 mins / 4′-hydroxy-diclofenac (1) 1.62 mins / 5-hydroxy-diclofenac (2) 1.58 mins / Diclofenac (Substrate) 1.81 mins: % by UV peak area at 275 nm, 0.125 mg/ml substrate, 27° C., 16-20 hours; for Hydroxylated Ratio hydroxy 1:hydroxy 2: diclofenac, ratio of UV peak areas at 275nm
Method in brief: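 Conversion of diclofenac (0.125 mg/ml) to hydroxy metabolites measured by UPLC with UV and MS detection, identities confirmed by authentic samples. Reactions used P450 aluC09 variants with ferredoxin aluF03, reductase SCF15A and an NADP/G6P/G6PDH recycling system, pH 7.4 phosphate, 27° C, 16-20 hours.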

[15] = Hydroxylation of flufenamic acid catalysed by cytochrome P450 aluC09 and mutants; details: for Flufenamic Acid (Substrate) 1.93 mins / Hydroxy-Flufenamic Acid (1) 1.69 mins / Hydroxy-Flufenamic Acid (2) 1.65 mins: % by UV peak area at 275 nm, 0.125 mg/ml substrate, 27° C., 16-20 hours; for Hydroxylated Ratio 1:2: flufenamic acid, ratio of UV peak areas at 275 nm
Method in brief: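 Conversion measured by UPLC-MS (UV and MS) after acetonitrile extraction, following 16-20 h shaking at 27° C. Reaction: 0.125 mg/ml substrate, P450 mutant plus ferredoxin aluF03 and reductase SCF15A, 5 mM G6P, 1 mM NADP, 2 U/ml G6PDH, pH 7.4 phosphate with 5 mM MgCl2.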

[16] = O-demethylation of indomethacin catalysed by cytochrome P450 aluC09 and mutants; details: % by UV peak area at 275 nm; 0.125 mg/ml substrate, 27° C., 16-20 hours
Method in brief: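 Conversion was quantified by UPLC-UV/MS after acetonitrile extraction of 16-20 h, 27° C. shaken reactions. These contained 0.125 mg/ml substrate, mutant P450 with partner ferredoxin and reductase, 1 mM NADP plus 5 mM G6P and 2 U/ml G6PDH, in pH 7.4 phosphate with 5 mM MgCl2.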

Row | Molecule | % conversions (avg) Valsartan [1] | % conversions (avg) Tivantinib [2] | Desethyl Napropamide (1.62 min) [3] | Desethyl-hydroxy-Napropamide (1.41 min) [3] | Hydroxy-Napropamide (1) (1.53 min) [3] | Hydroxy-Napropamide (2), (1.52 min) [3] | M-2Da (unidentified) (1.89 min) [3] | Napropamide (substrate) [3] | Hydroxylated Ratio 2:1 [3] | % conversions (avg) Buparvaquone [4] | % conversions (avg) Bosentan [5] | % conversions (avg) BIRB796 [6] | % conversions (avg) 4-pyrrolidylacetophenone [7] | % conversions (avg) Tofacitinib [8] | % conversions (avg) Epothilone B [9] | % conversions (avg) Celecoxib [10] | Aceclofenac (Substrate) (1.80 mins) [11] | Dihydroxy-Aceclofenac (1.42 mins) [11] | Hydroxy-Aceclofenac (1) (1.64 min) [11] | Hydroxy-Aceclofenac (2) (1.60 min) [11] | also measured
1 | aluC09M17: cytochrome P450 aluC09 mutant T291N; amino acid sequence SEQ ID NO: 16 (protein, listed as Amycolatopsis lurida) MTDVEETTATLPLARKCPFSPPPEYERLRRESPVSRVGLPSGQTAWALTRLEDIREMLSSPHFSSDRQSPSFPLMVARQIRREDKPFRPSLIAMDPPEHSRARRDVVGEFTVKRMKALQPRIQQIVDEHLDALLAGPKPADLVQALSLPVPSLVICELLGVPYSDHEFFQSCSSRMLSREVTAEERMTAFEQLENYLDELVTKKEANATEDDLLGRQILKQRETGEADHGELVGLAFLLLIAGHETTANMISLGTVTLLENPDQLAKIKADPGKTLAAIEELLRVFTIAENATSRFATADVEIGGTLIRAGEGVVGLSNAGNHDPDGFENPDTFDIERGARHHVAFGFGVHQCLGQNLARLELQIVFDTLFRRVPGLRIAVPVDELPFKHDSTIYGLHALPVTW | 21.9% | 53.9% | 53.7% | 10.6% | 0.9% | 3.1% | 6.0% | 28.7% | 3.4 | 17.9% | 100% | 23.2% | 21.7% | 4.4% | 16.8% | 8.1% | 9.2% | 43.2% | 6.9% | 40.8% | Hydroxylated Ratio 2:1 [11]: 5.9; % conversions (avg) Ruxolitinib [12]: 33.9%; % conversions (avg) Ritonavir [13]: 51.7%; 4′,5-dihydroxy-diclofenac 1.38 mins [14]: 3.2%; 4′-hydroxy-diclofenac (1) 1.62 mins [14]: 44.8%; 5-hydroxy-diclofenac (2) 1.58 mins [14]: 21.8%; Diclofenac (Substrate) 1.81 mins [14]: 32.3%; Hydroxylated Ratio hydroxy 1:hydroxy 2 [14]: 2.1; Flufenamic Acid (Substrate) 1.93 mins [15]: 94.4%; Hydroxy-Flufenamic Acid (1) 1.69 mins [15]: 3.4%; Hydroxy-Flufenamic Acid (2) 1.65 mins [15]: 2.2%; Hydroxylated Ratio 1:2 [15]: 1.6; Indomethacin (1.74 mins) [16]: 84.4%; O-demethyl-Indomethacin (1.52 mins) [16]: 15.6%
2 | aluC09M31: cytochrome P450 aluC09 mutant T291S; amino acid sequence SEQ ID NO: 36 (protein, listed as Amycolatopsis lurida) MTDVEETTATLPLARKCPFSPPPEYERLRRESPVSRVGLPSGQTAWALTRLEDIREMLSSPHFSSDRQSPSFPLMVARQIRREDKPFRPSLIAMDPPEHSRARRDVVGEFTVKRMKALQPRIQQIVDEHLDALLAGPKPADLVQALSLPVPSLVICELLGVPYSDHEFFQSCSSRMLSREVTAEERMTAFEQLENYLDELVTKKEANATEDDLLGRQILKQRETGEADHGELVGLAFLLLIAGHETTANMISLGTVTLLENPDQLAKIKADPGKTLAAIEELLRVFTIAESATSRFATADVEIGGTLIRAGEGVVGLSNAGNHDPDGFENPDTFDIERGARHHVAFGFGVHQCLGQNLARLELQIVFDTLFRRVPGLRIAVPVDELPFKHDSTIYGLHALPVTW | 33.9% | 56% | 44.8% | 4.6% | 2.4% | 5.1% | 7.0% | 37.9% | 2.1 | 11.3% | 99% | 15.3% | 4.9% | 1.5% | 35.3% | 3.6% | 12.3% | 43.1% | 8.5% | 36.1% | Hydroxylated Ratio 2:1 [11]: 4.2; % conversions (avg) Ruxolitinib [12]: 41.7%; % conversions (avg) Ritonavir [13]: 73.5%; 4′,5-dihydroxy-diclofenac 1.38 mins [14]: 3.3%; 4′-hydroxy-diclofenac (1) 1.62 mins [14]: 43.3%; 5-hydroxy-diclofenac (2) 1.58 mins [14]: 22.8%; Diclofenac (Substrate) 1.81 mins [14]: 32.3%; Hydroxylated Ratio hydroxy 1:hydroxy 2 [14]: 1.9; Flufenamic Acid (Substrate) 1.93 mins [15]: 89.1%; Hydroxy-Flufenamic Acid (1) 1.69 mins [15]: 6.8%; Hydroxy-Flufenamic Acid (2) 1.65 mins [15]: 4.1%; Hydroxylated Ratio 1:2 [15]: 1.7; Indomethacin (1.74 mins) [16]: 84.8%; O-demethyl-Indomethacin (1.52 mins) [16]: 15.2%
3 | aluC09M36: cytochrome P450 aluC09 mutant T291F; amino acid sequence SEQ ID NO: 56 (protein, listed as Amycolatopsis lurida) MTDVEETTATLPLARKCPFSPPPEYERLRRESPVSRVGLPSGQTAWALTRLEDIREMLSSPHFSSDRQSPSFPLMVARQIRREDKPFRPSLIAMDPPEHSRARRDVVGEFTVKRMKALQPRIQQIVDEHLDALLAGPKPADLVQALSLPVPSLVICELLGVPYSDHEFFQSCSSRMLSREVTAEERMTAFEQLENYLDELVTKKEANATEDDLLGRQILKQRETGEADHGELVGLAFLLLIAGHETTANMISLGTVTLLENPDQLAKIKADPGKTLAAIEELLRVFTIAEFATSRFATADVEIGGTLIRAGEGVVGLSNAGNHDPDGFENPDTFDIERGARHHVAFGFGVHQCLGQNLARLELQIVFDTLFRRVPGLRIAVPVDELPFKHDSTIYGLHALPVTW | 45.7% | 30.4% | 40.5% | 3.1% | 1.2% | 3.5% | 6.3% | 46.8% | 3.0 | 9.5% | 99.5% | 20% | 6.8% | 2.4% | 62.3% | 5.7% | 9.3% | 44.6% | 7.2% | 38.9% | Hydroxylated Ratio 2:1 [11]: 5.4; % conversions (avg) Ruxolitinib [12]: 42.1%; % conversions (avg) Ritonavir [13]: 73.8%; 4′,5-dihydroxy-diclofenac 1.38 mins [14]: 3.6%; 4′-hydroxy-diclofenac (1) 1.62 mins [14]: 42.8%; 5-hydroxy-diclofenac (2) 1.58 mins [14]: 23.0%; Diclofenac (Substrate) 1.81 mins [14]: 33.0%; Hydroxylated Ratio hydroxy 1:hydroxy 2 [14]: 1.9; Flufenamic Acid (Substrate) 1.93 mins [15]: 89.8%; Hydroxy-Flufenamic Acid (1) 1.69 mins [15]: 7.7%; Hydroxy-Flufenamic Acid (2) 1.65 mins [15]: 2.6%; Hydroxylated Ratio 1:2 [15]: 3.0; Indomethacin (1.74 mins) [16]: 80.3%; O-demethyl-Indomethacin (1.52 mins) [16]: 19.7%
